How the values were obtained:
[1] = biological target: human melanocortin-4 (MC4) receptor (human)
[2] = biological target: human melanocortin-1 (MC1) receptor (human)

| EC50 of cAMP response in transfected Hepa cells [1] | efficacy of cAMP response in transfected Hepa cells (% of the maximum response of α-MSH) [1] | cAMP generation in transfected L-cells (fold lower potency) [2] | Substance |
| --- | --- | --- | --- |
| 0.02 µM | 45 |  | γ-MSH (peptide) |
|  |  | 10 | β-MSH (peptide) |
| 0.1 µM | 75 |  | Pro^11 γ-MSH (peptide) |

Reference: patent US5703220
